Where two headings read alike, the source gives them in different places. Numbered stars: 1 amine (or outer) side, 2 acyl side, 3 side chain; on linkers, the order of the positions; unused ones are H or OH. Square brackets hold non-standard residues; d marks the D form. Side chains are listed from the residue outwards. Peptide text beside a SMILES is read from it. * marks the point of attachment. C18 diacid = O=C(O)CCCCCCCCCCCCCCCCC(=O)*; γGlu = O=C(O)[C@H](CCC(=O)[*:2])N[*:1]; Stearoyl = CCCCCCCCCCCCCCCCCC(=O)*; Palmitoyl = CCCCCCCCCCCCCCCC(=O)*; AEEA = NCCOCCOCC(=O)O; Aib = CC(C)(N)C(=O)O
T1: human GIP R (Homo sapiens, UniProt P48546)
T1 construct: expressed in transfected cells
T1 sequence (P48546 22-466): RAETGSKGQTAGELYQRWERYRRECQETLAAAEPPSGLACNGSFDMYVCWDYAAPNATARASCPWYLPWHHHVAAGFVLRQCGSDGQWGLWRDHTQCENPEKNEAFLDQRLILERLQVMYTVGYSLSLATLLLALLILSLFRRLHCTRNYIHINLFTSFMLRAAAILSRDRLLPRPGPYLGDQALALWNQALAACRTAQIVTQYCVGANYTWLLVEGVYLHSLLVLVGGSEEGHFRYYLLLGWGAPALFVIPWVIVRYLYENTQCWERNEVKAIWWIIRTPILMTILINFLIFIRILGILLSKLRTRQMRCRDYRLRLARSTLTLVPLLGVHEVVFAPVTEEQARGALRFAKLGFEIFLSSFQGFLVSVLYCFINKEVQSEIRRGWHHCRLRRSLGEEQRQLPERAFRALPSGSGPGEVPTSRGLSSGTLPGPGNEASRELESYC

T2: human GIP receptor (human, UniProt P48546 22-466)
T2 sequence: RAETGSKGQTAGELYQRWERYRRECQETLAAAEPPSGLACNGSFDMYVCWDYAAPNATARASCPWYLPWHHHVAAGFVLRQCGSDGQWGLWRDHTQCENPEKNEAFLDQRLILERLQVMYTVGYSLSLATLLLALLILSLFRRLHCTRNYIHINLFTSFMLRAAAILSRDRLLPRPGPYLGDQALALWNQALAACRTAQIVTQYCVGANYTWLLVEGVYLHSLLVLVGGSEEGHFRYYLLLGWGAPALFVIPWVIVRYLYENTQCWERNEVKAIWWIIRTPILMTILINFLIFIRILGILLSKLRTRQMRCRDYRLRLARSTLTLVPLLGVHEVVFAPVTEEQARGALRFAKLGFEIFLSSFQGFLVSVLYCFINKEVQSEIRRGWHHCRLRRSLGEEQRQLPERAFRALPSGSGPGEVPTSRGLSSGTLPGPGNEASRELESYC


Tests used:
human GIP R = molecular target: T1, human GIP R; experiment: cAMP induction in HEK293 cells expressing human GIP R (AlphaScreen cAMP kit); type: cell-based
human GCG R = molecular target: T3, human GCG R (Homo sapiens, UniProt P47871); experiment: cAMP induction in HEK293 cells expressing human GCG R (AlphaScreen cAMP kit); type: cell-based
T3 construct: expressed in transfected cells
Protocol: Briefly, HEK293 cells expressing the human GIP R, GLP-1 R or GCG R (stable cell lines generated through transfection of the cDNA for human GIP R, GLP-1 R or GCG R and selection of stable clones) were seeded at 30,000 cells/well in 96-well microtiter plates coated with 0.01% poly-L-lysine, and grown for 1 day in culture in 200 μl growth medium (DMEM, 10% FCS, Penicillin (100 IU/ml), Streptomycin (100 μg/ml)). On the day of analysis, growth medium was removed and the cells were washed once with 150 μl Tyrode's buffer (Tyrode's Salts (9.6 g/l), 10 mM HEPES, pH 7.4). […] The Assay buffer was removed and cells are lysed in 80 μl Lysis buffer (0.1% w/v BSA, 5 mM HEPES, 0.3% v/v Tween-20) per well. From each well 10 μl of lysed cells were transferred to a 384-well plate and mixed with 15 μl bead-mix (1 Unit/15 μl anti-cAMP Acceptor Beads, 1 Unit/15 μl Donor Beads, and 1 Unit/15 μl Biotinylated cAMP in Assay Buffer). The plates were mixed and incubated in the dark for an hour at room temperature before measuring using an Envision™ plate reader (Perkin-Elmer).
The resulting cAMP curves were plotted as absolute cAMP concentrations (nM) over log (test compound concentration) and analyzed using the curve fitting program XLfit.
Parameters calculated to describe both the potency as well as the agonistic activity of each test compound on the receptors were:
EC50, a concentration resulting in a half-maximal elevation of cAMP levels, reflecting the potency of the test compound.

human GLP-1 R = molecular target: T4, human GLP-1 R (Homo sapiens, UniProt P43220); experiment: cAMP induction in HEK293 cells expressing human GLP-1 R (AlphaScreen cAMP kit); type: cell-based; conditions: average EC50, cAMP, HEK293 cells expressing human GLP-1 R, read-out: GLP1 R (EC50 in nM)
T4 construct: expressed in transfected cells

[1] = molecular target: T5, human glucagon-like peptide 1 receptor (human, UniProt P43220 24-463); experiment: cell-based or functional assay
human GIP receptor [2] = molecular target: T2, human GIP receptor; experiment: cell-based or functional assay
human glucagon receptor [3] = molecular target: T6, human glucagon receptor (human, UniProt P47871 26-477); experiment: cell-based or functional assay
[4] = molecular target: T5, human glucagon-like peptide 1 receptor; experiment: cell-based or functional assay; remark: listed apart in the source
human GIP receptor [5] = molecular target: T2, human GIP receptor; experiment: cell-based or functional assay; remark: listed apart in the source
human glucagon receptor [6] = molecular target: T6, human glucagon receptor; experiment: cell-based or functional assay; remark: listed apart in the source
[7] = GIP R (EC50 in nM), Table 2, average EC50, cAMP
[8] = Table 2b (most comprehensive data)

T3 sequence (P47871 26-477): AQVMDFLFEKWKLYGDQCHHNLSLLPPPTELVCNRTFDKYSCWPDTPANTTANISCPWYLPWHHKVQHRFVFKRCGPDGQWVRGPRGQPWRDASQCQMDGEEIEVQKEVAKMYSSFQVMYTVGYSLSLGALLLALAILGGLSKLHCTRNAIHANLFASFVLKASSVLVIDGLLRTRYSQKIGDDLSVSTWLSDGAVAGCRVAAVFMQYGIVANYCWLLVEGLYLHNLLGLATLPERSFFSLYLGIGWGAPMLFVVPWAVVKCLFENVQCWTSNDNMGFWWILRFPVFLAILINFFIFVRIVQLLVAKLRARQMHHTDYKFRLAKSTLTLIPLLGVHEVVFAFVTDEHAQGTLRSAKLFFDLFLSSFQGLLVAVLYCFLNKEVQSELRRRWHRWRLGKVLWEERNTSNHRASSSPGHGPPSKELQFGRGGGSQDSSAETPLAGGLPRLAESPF
T6 sequence (P47871 26-477): as above
T4 sequence (P43220 24-463): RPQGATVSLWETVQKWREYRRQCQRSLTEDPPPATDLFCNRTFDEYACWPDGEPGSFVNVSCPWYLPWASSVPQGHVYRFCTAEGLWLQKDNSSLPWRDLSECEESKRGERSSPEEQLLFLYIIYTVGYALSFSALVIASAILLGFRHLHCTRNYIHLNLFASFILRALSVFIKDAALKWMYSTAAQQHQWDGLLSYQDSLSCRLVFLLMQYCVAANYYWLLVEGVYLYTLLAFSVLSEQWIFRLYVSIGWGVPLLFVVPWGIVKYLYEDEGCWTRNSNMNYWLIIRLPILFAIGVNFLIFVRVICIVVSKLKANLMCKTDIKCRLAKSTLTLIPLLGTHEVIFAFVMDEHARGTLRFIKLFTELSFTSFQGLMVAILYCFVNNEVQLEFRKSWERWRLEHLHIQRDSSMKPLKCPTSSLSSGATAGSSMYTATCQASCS

Molecule	EC50 (human GIP R; [7]) [nM]	EC50 (human GCG R) [nM]	EC50 (human GLP-1 R; Table 2) [nM]	EC50 (human GLP-1 R; [8]) [nM]	EC50 (human GIP R; Table 2b (most comprehensive data), average EC50, cAMP, read-out: GIP R (EC50 in nM)) [nM]	EC50 (human GCG R; Table 2b (most comprehensive data), average EC50, cAMP, HEK293 cells expressing human GCG R, read-out: GCG R (EC50 in nM)) [nM]	EC50 (cAMP induction) [1] [pM]	EC50 (cAMP induction) (human GIP receptor [2]) [pM]	EC50 (cAMP induction) (human glucagon receptor [3]) [pM]	EC50 (cAMP induction) [4] [pM]	EC50 (cAMP induction) (human GIP receptor [5]) [pM]	EC50 (cAMP induction) (human glucagon receptor [6]) [pM]
CC[C@H](C)[C@H](NC(=O)[C@H](CO)NC(=O)[C@H](Cc1ccc(O)cc1)NC(=O)[C@H](CC(=O)O)NC(=O)[C@H](CO)NC(=O)[C@@H](NC(=O)[C@H](Cc1ccccc1)NC(=O)[C@@H](NC(=O)CNC(=O)[C@H](CCC(N)=O)NC(=O)C(C)(C)NC(=O)[C@@H](N)Cc1ccc(O)cc1)[C@@H](C)O)[C@@H](C)O)C(=O)N[C@@H](Cc1ccc(O)cc1)C(=O)N[C@@H](CC(C)C)C(=O)N[C@@H](CCC(=O)O)C(=O)N[C@@H](CO)C(=O)N[C@@H](CCCCN)C(=O)N[C@@H](C)C(=O)N[C@@H](C)C(=O)N[C@@H](Cc1c[nH]cn1)C(=O)N[C@@H](CC(=O)O)C(=O)N[C@@H](Cc1ccccc1)C(=O)N[C@H](C(=O)N[C@@H](CCC(=O)O)C(=O)N[C@@H](Cc1c[nH]c2ccccc12)C(=O)N[C@@H](CC(C)C)C(=O)N[C@@H](CC(C)C)C(=O)N[C@@H](CO)C(=O)N[C@@H](C)C(N)=O)C(C)C [Compound 18] (HELM PEPTIDE1{Y.[Aib].Q.G.T.F.T.S.D.Y.S.I.Y.L.E.S.K.A.A.H.D.F.V.E.W.L.L.S.A.[am]}$$$$V2.0)	0.07	0.15	0.021	0.15	–	–	–	–	–	–	–	–
CCCCCCCCCCCCCCCC(=O)N[C@@H](CCC(=O)NCCCC[C@H](NC(=O)[C@H](CO)NC(=O)[C@H](CC(=O)O)NC(=O)[C@H](CC(C)C)NC(=O)[C@H](Cc1ccc(O)cc1)NC(=O)[C@H](CCCCN)NC(=O)[C@H](CO)NC(=O)[C@H](Cc1ccc(O)cc1)NC(=O)[C@H](CC(=O)O)NC(=O)[C@H](CO)NC(=O)[C@@H](NC(=O)[C@H](Cc1ccccc1)NC(=O)[C@@H](NC(=O)CNC(=O)[C@H](CCC(N)=O)NC(=O)C(C)(C)NC(=O)[C@@H](N)Cc1ccc(O)cc1)[C@@H](C)O)[C@@H](C)O)C(=O)N[C@@H](C)C(=O)N[C@@H](C)C(=O)N[C@@H](Cc1c[nH]cn1)C(=O)N[C@@H](CC(=O)O)C(=O)N[C@@H](Cc1ccccc1)C(=O)N[C@H](C(=O)N[C@@H](CCC(=O)O)C(=O)N[C@@H](Cc1c[nH]c2ccccc12)C(=O)N[C@@H](CC(C)C)C(=O)N[C@@H](CC(C)C)C(=O)N[C@@H](CO)C(=O)N[C@@H](C)C(N)=O)C(C)C)C(=O)O [Compound 2] (HELM PEPTIDE1{Y.[Aib].Q.G.T.F.T.S.D.Y.S.K.Y.L.D.S.K.A.A.H.D.F.V.E.W.L.L.S.A.[am]}|PEPTIDE2{[CCCCCCCCCCCCCCCC(=O)[*:2]].[gGlu]}$PEPTIDE1,PEPTIDE2,17:R3-2:R2$$$V2.0)	0.35	0.046	0.089	–	–	–	–	–	–	–	–	–
CC[C@H](C)[C@H](NC(=O)[C@H](CO)NC(=O)[C@H](Cc1ccc(O)cc1)NC(=O)[C@H](CC(=O)O)NC(=O)[C@H](CO)NC(=O)[C@@H](NC(=O)[C@H](Cc1ccccc1)NC(=O)[C@@H](NC(=O)CNC(=O)[C@H](CCC(N)=O)NC(=O)C(C)(C)NC(=O)[C@@H](N)Cc1ccc(O)cc1)[C@@H](C)O)[C@@H](C)O)C(=O)N[C@@H](Cc1ccc(O)cc1)C(=O)N[C@@H](CC(C)C)C(=O)N[C@@H](CCC(=O)O)C(=O)N[C@@H](CCCCN)C(=O)N[C@@H](CCCCNC(=O)COCCOCCNC(=O)COCCOCCNC(=O)CC[C@H](NC(=O)CCCCCCCCCCCCCCCCC(=O)O)C(=O)O)C(=O)N[C@@H](C)C(=O)N[C@@H](C)C(=O)N[C@@H](CCCCN)C(=O)N[C@@H](CCC(=O)O)C(=O)N[C@@H](Cc1ccccc1)C(=O)N[C@H](C(=O)N[C@@H](CCC(=O)O)C(=O)N[C@@H](Cc1c[nH]c2ccccc12)C(=O)N[C@@H](CC(C)C)C(=O)N[C@@H](CC(C)C)C(=O)N[C@@H](CO)C(=O)N[C@@H](C)C(=O)NCC(=O)N1CCC[C@H]1C(=O)N[C@@H](CO)C(=O)N[C@@H](CO)C(=O)NCC(=O)N[C@@H](C)C(=O)N1CCC[C@H]1C(=O)N1CCC[C@H]1C(=O)N1CCC[C@H]1C(=O)N[C@@H](CO)C(N)=O)C(C)C [Compound 38] (H-Y[Aib]QGTFTSDYSIYLEKK([AEEA-AEEA-γGlu-C18 diacid])AAKEFVEWLLSAGPSSGAPPPS-NH2)	–	–	–	0.015	0.064	0.27	–	–	–	–	–	–
CC(C)C[C@H](NC(=O)[C@H](C)NC(=O)[C@H](CCCCN)NC(=O)[C@H](CO)NC(=O)[C@H](Cc1ccc(O)cc1)NC(=O)[C@H](CC(=O)O)NC(=O)[C@H](CO)NC(=O)[C@@H](NC(=O)[C@H](Cc1ccccc1)NC(=O)[C@@H](NC(=O)CNC(=O)[C@H](CCC(N)=O)NC(=O)C(C)(C)NC(=O)[C@@H](N)Cc1ccc(O)cc1)[C@@H](C)O)[C@@H](C)O)C(=O)N[C@@H](CC(=O)O)C(=O)N[C@@H](CO)C(=O)N[C@@H](CCCCN)C(=O)N[C@@H](C)C(=O)N[C@@H](C)C(=O)N[C@@H](Cc1c[nH]cn1)C(=O)N[C@@H](CC(=O)O)C(=O)N[C@@H](Cc1ccccc1)C(=O)N[C@H](C(=O)N[C@@H](CCC(=O)O)C(=O)N[C@@H](Cc1c[nH]c2ccccc12)C(=O)N[C@@H](CC(C)C)C(=O)N[C@@H](CC(C)C)C(=O)N[C@@H](CO)C(=O)N[C@@H](C)C(N)=O)C(C)C [Compound 7] (HELM PEPTIDE1{Y.[Aib].Q.G.T.F.T.S.D.Y.S.K.A.L.D.S.K.A.A.H.D.F.V.E.W.L.L.S.A.[am]}$$$$V2.0)	0.42	0.086	0.031	–	–	–	–	–	–	–	–	–
H-Y[Aib]QGTFTSDYSKYLDSK([γGlu-Palmitoyl])AAHDFVEWLLSA-NH2 [Compound 2]	–	–	–	–	–	–	89	350	46	46	89	46
H-Y[Aib]QGTFTSDYSIALEKK([Peg3-Peg3-γGlu-Stearoyl])AQRAFVEWLLAQK-NH2 [Compound 46]	–	–	–	–	–	–	–	–	–	160	11	130
H-YSQGTFTSDYSKYLDSKAAHDFVEWLLRA-NH2 [Compound 1]	–	–	–	–	–	–	33	380	13	13	33	13
YAQGTFTSDYSKYLDSKAAHDFVEWLLRA (HELM PEPTIDE1{Y.[Aib].Q.G.T.F.T.S.D.Y.S.K.Y.L.D.S.K.A.A.H.D.F.V.E.W.L.L.R.A.[am]}$$$$V2.0; SMILES CC(C)C[C@H](NC(=O)[C@H](CC(C)C)NC(=O)[C@H](Cc1c[nH]c2ccccc12)NC(=O)[C@H](CCC(=O)O)NC(=O)[C@@H](NC(=O)[C@H](Cc1ccccc1)NC(=O)[C@H](CC(=O)O)NC(=O)[C@H](Cc1c[nH]cn1)NC(=O)[C@H](C)NC(=O)[C@H](C)NC(=O)[C@H](CCCCN)NC(=O)[C@H](CO)NC(=O)[C@H](CC(=O)O)NC(=O)[C@H](CC(C)C)NC(=O)[C@H](Cc1ccc(O)cc1)NC(=O)[C@H](CCCCN)NC(=O)[C@H](CO)NC(=O)[C@H](Cc1ccc(O)cc1)NC(=O)[C@H](CC(=O)O)NC(=O)[C@H](CO)NC(=O)[C@@H](NC(=O)[C@H](Cc1ccccc1)NC(=O)[C@@H](NC(=O)CNC(=O)[C@H](CCC(N)=O)NC(=O)C(C)(C)NC(=O)[C@@H](N)Cc1ccc(O)cc1)[C@@H](C)O)[C@@H](C)O)C(C)C)C(=O)N[C@@H](CCCNC(=N)N)C(=O)N[C@@H](C)C(N)=O) [Compound 3]	–	–	–	–	–	–	15	130	22	22	15	22

— patent US10131702B2, “Glucagon-GLP-1-GIP triple agonist compounds” (priority 2013, dated 2018)
